Measurements taken from the Human Domainome abundance scans (Beltran et al. 2025).

B1: E3 ubiquitin-protein ligase NEDD4-like, residues 539 to 589; numbered along this chain, Q96PU5 (parent)
chain: KTSLNPNDLGPLPPGWEERIHLDGRTFYIDHNSKITQWEDPRLQNPAITGP

Variants of: B1
Experiment: abundance fitness (aPCA) (normalised: wild type 0, dead -1); higher = more abundant; growth selection in yeast, the domain comes from the species named
Conditions: Homo sapiens

Abundance fitness: each site, then its substitutions
D30: L -0.591 | A -0.539 | N 0.166 | C -0.166 | G -0.617 | I -0.87 | F -0.546 | V -1.03 | P -0.953 | Q -0.424 | Y -0.358 | T -0.716 | K -0.369 | S -0.32 | R -0.553 | M -0.753 | H 0.125 | E -0.24
I29: R -0.271 | G -0.482 | L -0.175 | N -0.378 | T -0.166 | V 0.013 | C -0.124 | E -0.105 | S -0.318 | Q -0.176 | D -0.422 | Y -0.017 | W -0.332 | M -0.141 | K -0.027 | H -0.782 | A -0.299
Q37: V -0.397 | C -0.207 | D -0.521 | W -0.564 | M -0.231 | S -0.014 | K -0.357 | G -0.723 | L -0.703 | A -0.443 | Y -0.33 | E -0.742 | T 0.21 | H 0.068 | F -0.358 | N -0.511
D40: G -0.731 | V -0.706 | I -0.574 | S -0.492 | Y -0.53 | M -0.639 | A -0.528 | L -0.654 | K -0.585 | E -0.587 | F -0.566 | H -0.16 | Q -0.878 | C -0.639 | P -0.401 | T -0.919
Y28: G -0.451 | P -0.242 | D -0.399 | K -0.332 | W -0.008 | F -0.347 | C -0.902 | L -0.703 | S -0.399 | T -0.626 | V -0.696 | Q -0.424 | M -0.991 | R -0.536 | I -0.273 | N -0.851 | H -0.636
T36: C 0.086 | M -0.208 | G -0.224 | R -0.291 | P -0.608 | L -0.558 | A -0.341 | V -0.263 | W -0.491 | E -0.119 | H 0.032 | F -0.261 | Q -0.336 | N -0.469
Q44: C -0.15 | R -0.039 | H -0.155 | G -0.022 | M -0.049 | K 0.11 | A -0.028 | S -0.054 | E 0.074 | P -0.135 | T -0.078 | N -0.091 | Y -0.336 | F -0.218 | V -0.114 | D 0.028 | I -0.016 | W -0.27
L43: P -0.089 | H -0.131 | M -0.153 | Q -0.144 | C -0.11 | Y -0.192 | I -0.256 | F -0.104 | N -0.183 | A 0.007 | R -0.116 | T -0.069 | G -0.086 | D -0.139 | E -0.042 | V -0.088 | W -0.333
N32: M -0.164 | F -0.39 | L -0.181 | Y -0.24 | K -0.011 | S -0.086 | P -0.594 | A -0.339 | E -0.03 | T -0.035 | V -0.064 | Q -0.18 | H -0.286 | W -0.395 | C -0.312 | R -0.044 | I 0.074 | D -0.118
P41: E -0.718 | T -0.875 | V -0.848 | G -0.742 | S -0.827 | M -0.367 | W -1.11 | C -0.672 | H -1.08 | K -0.868 | Q -1.14 | A -0.947 | R -0.758 | N -0.86 | D -0.98 | I -1.28 | F -1.1 | Y -1.15
F27: S -0.092 | R -0.163 | T -0.089 | W -0.346 | V -0.188
K34: P -0.857 | E -0.251 | H -0.087 | M -0.105 | D -0.063 | V -0.58 | A -0.176 | L -0.284 | F -0.513 | I -0.875 | N -0.053 | C -0.223 | W -0.547 | R -0.119 | Y -0.39 | S -0.197 | Q 0.076 | G -0.022 | T -0.218
W38: E 0.068 | N -0.059 | K -0.029 | G -0.249 | Y -0.041 | I -0.162 | L -0.173 | V -0.146 | A -0.014 | F 0.066 | H -0.121 | Q -0.07 | T 0.058 | M -0.127 | D 0.002 | P -0.223
S33: R 0.056 | A -0.061 | N -0.001 | T 0.066 | L -0.188 | H 0.098 | K 0.05 | E -0.067 | V -0.385 | I -0.42 | D -0.267 | G -0.344 | Q -0.188 | W -0.802 | M -0.279 | C -0.153
P46: Y -0.317 | I -0.171 | E -0.39 | T -0.051 | Q -0.27 | D -0.028 | S -0.048 | N -0.263 | F -0.228 | A -0.06 | K 0.028 | V -0.014 | H -0.105 | L 0.161 | W -0.249 | C -0.098 | M 0.084 | G 0.01
E39: M -0.245 | D -0.077 | N -0.009 | A -0.15 | W -0.456 | Y -0.412 | S -0.1 | I -0.251 | G -0.183 | C -0.194 | H -0.153 | K -0.216 | L -0.313 | T -0.105 | R -0.208 | Q -0.362 | V -0.233 | F -0.45
H31: M 0 | E -0.243 | A -0.174 | C -0.149 | G -0.243 | L -0.04 | V -0.07 | R -0.156 | W -0.428 | K 0.11 | I -0.017 | T 0.065 | S -0.08 | F -0.479 | Y -0.414 | D -0.601 | Q -0.224
I35: M -0.239 | K 0.065 | Y -0.291 | R 0.048 | D -0.128 | N -0.042 | S -0.079 | A 0.008 | Q 0.029 | F -0.16 | G -0.301 | T 0.04 | L -0.035 | C 0.002 | V -0.163
N45: G -0.045 | K 0.029 | F -0.634 | D -0.213 | A -0.028 | H -0.068 | R 0.003 | W -0.331 | Y -0.157 | L -0.094 | M -0.163 | S -0.011 | T -0.007 | E -0.046 | C -0.103 | I -0.099 | V -0.106 | Q -0.102
R42: S -0.661 | L -0.787 | M -0.718 | W -1.18 | P -0.474 | F -1.09 | N -0.687 | E -0.752 | D -1.15 | K -0.352 | C -0.847 | H -0.67 | G -0.656 | T -0.71 | Y -1.05
A47: K -0.204 | C -0.049 | G 0.01 | H 0.235 | D 0.218 | E -0.002 | F -0.204 | I -0.167
